Two molecules from publication PMC7192620 can be followed below.

For one data set, the target named is YBX1 (YB-1) (UniProt P67809 1-324). Kind of data set: ELONA titration.
A further data set deals with T1, RBM3 (UniProt P98179 1-157).
T1 sequence: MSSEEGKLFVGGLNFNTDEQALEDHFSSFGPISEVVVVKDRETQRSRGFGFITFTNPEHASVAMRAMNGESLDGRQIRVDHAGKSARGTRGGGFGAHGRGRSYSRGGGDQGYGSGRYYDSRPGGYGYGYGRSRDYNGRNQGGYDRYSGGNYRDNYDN
Briefly: ELONA titration.

Chain of YBX1 (YB-1) (P67809 whole entry): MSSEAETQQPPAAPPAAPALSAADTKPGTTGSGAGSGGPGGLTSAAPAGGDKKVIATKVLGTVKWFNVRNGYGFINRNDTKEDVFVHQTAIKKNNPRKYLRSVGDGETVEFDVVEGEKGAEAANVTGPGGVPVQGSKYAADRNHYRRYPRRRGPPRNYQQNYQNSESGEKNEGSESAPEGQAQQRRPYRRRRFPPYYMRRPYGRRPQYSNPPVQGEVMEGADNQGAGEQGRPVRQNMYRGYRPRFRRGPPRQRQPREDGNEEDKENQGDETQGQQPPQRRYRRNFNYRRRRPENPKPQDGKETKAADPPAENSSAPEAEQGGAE

B1: Sequence 7 (ssDNA)
DNA: CTAGCATGACTGCAGTACGTTACTTAATTGGGGGGGGGGATTCTGTTTTGTCTCTCTGTCTCTTATACACATCTGACGCTGCCGACGA
modifications: 5' biotin (5Biosg)
Regarding B1, the Kd (commonly the concentration at which binding is half-saturated) in the data set with YBX1 (YB-1) is approximately 3 nM.

B2: Sequence 7 RC (ssDNA)
DNA: TCGTCGGCAGCGTCAGATGTGTATAAGAGACAGAGAGACAAAACAGAATCCCCCCCCCCAATTAAGTAACGTACTGCAGTCATGCTAG
modifications: 5' biotin (5Biosg)
Consider B2, for which, in the data set with RBM3, the binding result is on record as “no binding”.
